From article PMC6731095, “Regulation of Eag1 gating by its intracellular domains” (eLife, 2019)

Key:
Calmodulin = target: T1, Calmodulin (human, UniProt P0DP24 1-149); experiment: cryo-EM structure; Eag1 Δ3–13 and CaM co-expressed and co-purified; 20 mM Tris pH 8, 300 mM KCl, 1 mM CaCl2, 0.05% digitonin; 5 mg/ml; C4 symmetry imposed; two conformations; conditions: both partners purified
T1 construct: Calmodulin, Homo sapiens, Uniprot P0DP24; Calcium (1 mM CaCl2) was present throughout; also called CaM; source: HEK293S GnTI-, infected with BacMam baculovirus together with Eag1 Δ3–13 baculovirus, co-purified with Eag1 Δ3–13

[1] = target: the molecule itself; experiment: as above

B1: Eag1 Δ3–13 (rat Kv10.1/Eag1/Kcnh1, residues 3–13 deleted, C-terminal unstructured region 773-886 removed) (natural protein, UniProt Q63472 1-962, looked up)
chain: MTQNTFLENIVRRSNDTNFVLGNAQIVDWPIVYSNDGFCKLSGYHRAEVMQKSSACSFMYGELTDKDTVEKVRQTFENYEMNSFEILMYKKNRTPVWFFVKIAPIRNEQDKVVLFLCTFSDITAFKQPIEDDSCKGWGKFARLTRALTSSRGVLQQLAPSVQKGENVHKHSRLAEVLQLGSDILPQYKQEAPKTPPHIILHYCVFKTTWDWIILILTFYTAILVPYNVSFKTRQNNVAWLVVDSIVDVIFLVDIVLNFHTTFVGPAGEVISDPKLIRMNYLKTWFVIDLLSCLPYDVINAFENVDEGISSLFSSLKVVRLLRLGRVARKLDHYIEYGAAVLVLLVCVFGLAAHWMACIWYSIGDYEIFDEDTKTIRNNSWLYQLALDIGTPYQFNGSGSGKWEGGPSKNSVYISSLYFTMTSLTSVGFGNIAPSTDIEKIFAVAIMMIGSLLYATIFGNVTTIFQQMYANTNRYHEMLNSVRDFLKLYQVPKGLSERVMDYIVSTWSMSRGIDTEKVLQICPKDMRADICVHLNRKVFKEHPAFRLASDGCLRALAMEFQTVHCAPGDLIYHAGESVDSLCFVVSGSLEVIQDDEVVAILGKGDVFGDVFWKEATLAQSCANVRALTYCDLHVIKRDALQKVLEFYTAFSHSFSRNLILTYNLRKRIVFRKISDVKREEEERMKRKNEAPLILPPDHPVRRLFQRFRQQKEARLAAERGGRDLDDLDVEKGNALTDHTSANHSLVKASVVTVRESPATPVSFYPIPEQTLQATVLEVKHELKEDIKALNAKMTSIEKQLSEILRILMSRGSSQSPQDTCEVSRPQSPESDRDIFGAS
notes: Kv10.1/Eag1/Kcnh1, Rattus norvegicus, Uniprot Q63472; whole channel with residues 3-13 of the PAS loop deleted and the C-terminal unstructured region 773-886 removed; The GFP tag was removed with PreScission protease; also called calmodulin insensitive mutant; not shown: GFP, C-terminal, cleaved; His6, C-terminal, cleaved
- binding result (Calmodulin): binds
- stoichiometry N [1]: 4
